The record followed here is PMC3520923, “Expression, Characterization, and Cellular Localization of Knowpains, Papain-Like Cysteine Proteases of the Plasmodium knowlesi Malaria Parasite” (PLoS ONE, 2012).

As a reminder, the Km is the substrate concentration at which the rate is half of its maximum. By kcat is commonly meant the maximal rate divided by the concentration of active sites. In general, kcat/Km refers to the second-order rate constant that governs catalysis at low substrate concentration.

In series [1] the target is T1, knowpain-4 (KP4) (Plasmodium knowlesi, UniProt A0A384LCH8).
T1 construct: gene PKNH_0912800
T1 sequence (A0A384LCH8 entry or part of it): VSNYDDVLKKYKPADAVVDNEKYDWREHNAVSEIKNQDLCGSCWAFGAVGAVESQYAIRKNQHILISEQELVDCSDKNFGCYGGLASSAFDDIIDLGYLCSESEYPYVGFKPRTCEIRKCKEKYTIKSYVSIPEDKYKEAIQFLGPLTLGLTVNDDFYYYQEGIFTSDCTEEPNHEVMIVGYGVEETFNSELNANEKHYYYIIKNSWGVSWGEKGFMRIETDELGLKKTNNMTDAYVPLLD
As to the kind of experiment: inhibition of Z-LR-AMC hydrolysis, fluorescence. The series is classed as biochemical. The conditions noted are these: 10 µM inhibitor, 10 nM enzyme, 5 min preincubation, sodium acetate pH 5.5, 25 µM Z-LR-AMC; covalent.

Series [2] concerns the target T2, knowpain-3 (KP3) (Plasmodium knowlesi, UniProt A0A384KX24).
T2 construct: gene PKNH_0912900
Briefly: inhibition of Z-LR-AMC hydrolysis, fluorescence. It is filed as biochemical. To be noted: 10 µM inhibitor, 100 nM enzyme, 5 min preincubation, sodium acetate pH 5.5, 25 µM Z-LR-AMC; covalent.

In series [3] the test system is Cc1cc(=O)oc2cc(NC(=O)[C@H](CCCNC(=N)N)NC(=O)[C@H](CC(C)C)NC(=O)OCc3ccccc3)ccc12. Briefly: purified protein. The conditions noted are these: 100 mM sodium acetate pH 5.5, 10 mM DTT, 37°C.
Series [4] relates to Cc1cc(=O)oc2cc(NC(=O)[C@H](CCCNC(=N)N)NC(=O)[C@H](Cc3ccccc3)NC(=O)OCc3ccccc3)ccc12. Briefly: purified protein. To be noted: 100 mM sodium acetate pH 5.5, 10 mM DTT, 37°C.
From the text: (§1) fluorogenic AMC release, initial rates, ORIGIN fit on knowpain-4 (KP4)
Series [5] relates to Cc1cc(=O)oc2cc(NC(=O)[C@H](CCCNC(=N)N)NC(=O)[C@H](CCCNC(=N)N)NC(=O)OCc3ccccc3)ccc12. As to the kind of experiment: purified protein. To be noted: 100 mM sodium acetate pH 5.5, 10 mM DTT, 37°C.
From the text: as §1

T2 sequence (A0A384KX24 entry or part of it): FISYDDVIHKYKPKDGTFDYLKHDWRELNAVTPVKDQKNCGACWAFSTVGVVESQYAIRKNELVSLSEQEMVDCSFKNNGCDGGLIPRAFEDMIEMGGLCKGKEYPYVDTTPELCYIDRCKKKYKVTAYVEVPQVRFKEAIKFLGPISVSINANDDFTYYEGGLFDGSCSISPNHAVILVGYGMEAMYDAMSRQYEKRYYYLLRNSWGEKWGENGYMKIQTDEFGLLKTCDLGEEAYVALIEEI

Turning to `CC(C)C[C@H](NC(=O)[C@@H]1O[C@H]1C(=O)O)C(=O)NCCCCN=C(N)N` [E64, trans-epoxysuccinyl-L-leucylamido-(4-guanidino) butane], the “% of control activity at 10 μM” value in series [1] was “blocked by the cysteine protease inhibitors E64 and leupeptin”; in series [2] it was “blocked by the cysteine protease inhibitors E64 and leupeptin”.
Consider “knowpain-2 (KP2) (Plasmodium knowlesi strain H)”, for which, in series [3], the Km stood at 14.26 ± 0.27 µM, the kcat is 0.0011 s⁻¹ and the kcat/Km turned out to be 75.6 M⁻¹ s⁻¹.
The corresponding values for “knowpain-3 (KP3) (Plasmodium knowlesi strain H)” are 30.56 ± 1.23 µM, 0.0156 s⁻¹ and 511 M⁻¹ s⁻¹.
As for “knowpain-4 (KP4) (Plasmodium knowlesi strain H)”, in series [3], the Km is 4.20 ± 0.25 µM, the kcat turned out to be 0.0129 s⁻¹ and the kcat/Km came out at 3070 M⁻¹ s⁻¹. In addition, in series [4], the Km turned out to be 4.20 ± 0.19 µM, the kcat turned out to be 0.0062 s⁻¹ and the kcat/Km was determined as 1470 M⁻¹ s⁻¹. Further, in series [5], the Km is 2.13 ± 0.17 µM, the kcat turned out to be 0.0435 s⁻¹ and the kcat/Km worked out at 20500 M⁻¹ s⁻¹.
